The values below come from paper PMC11147780, “Vaccination induces broadly neutralizing antibody precursors to HIV gp41” (Nature Immunology, 2024).

Read-outs that look alike come from different tables or passages of the source.

What is called Kd is the free concentration of one partner at which half of the binding sites on the other are occupied at equilibrium, for simple one-to-one binding. Read a low Kd as higher affinity. The koff is the rate constant with which the complex falls apart. A lower koff goes with a long-lived complex. One may read the kon as the second-order rate constant of association. Higher therefore signals fast association.

Test [1] addresses T1, 10E8-GT10.1 epitope scaffold (synthetic construct, circularly …, N-linked glycosylation sites added (positions not given)).
T1 chain: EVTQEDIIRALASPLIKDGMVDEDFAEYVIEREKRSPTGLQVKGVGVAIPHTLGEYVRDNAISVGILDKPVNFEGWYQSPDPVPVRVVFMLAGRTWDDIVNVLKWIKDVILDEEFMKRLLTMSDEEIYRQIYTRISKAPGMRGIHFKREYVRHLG

In test [2] the target is T2, 10E8-GT10.2 epitope scaffold (designed scaffold 10E8-GT10.2 with …, N-linked glycosylation sites added (positions not given)).
T2 chain: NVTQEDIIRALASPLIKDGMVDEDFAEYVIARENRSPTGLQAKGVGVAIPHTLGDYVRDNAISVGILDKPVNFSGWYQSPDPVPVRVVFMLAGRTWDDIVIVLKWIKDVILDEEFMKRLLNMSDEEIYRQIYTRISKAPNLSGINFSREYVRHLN

Test [3] deals with T3, 10E8-B1 epitope scaffold (synthetic construct (resurfaced …)).
T3 chain: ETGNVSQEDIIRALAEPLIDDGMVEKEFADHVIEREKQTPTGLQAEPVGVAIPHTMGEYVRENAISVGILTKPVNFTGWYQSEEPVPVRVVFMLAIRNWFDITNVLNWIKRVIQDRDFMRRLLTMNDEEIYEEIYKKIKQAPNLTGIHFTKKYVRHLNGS

Another test has as its target T4, 10E8-GT4 (synthetic construct (T117-based HIV-1 …)).
T4 construct: source: FreeStyle 293F, purified (IMAC, SEC)
T4 chain: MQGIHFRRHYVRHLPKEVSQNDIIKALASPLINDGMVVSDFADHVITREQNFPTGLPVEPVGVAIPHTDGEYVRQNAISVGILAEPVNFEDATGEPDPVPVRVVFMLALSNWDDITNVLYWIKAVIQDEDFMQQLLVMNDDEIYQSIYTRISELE
Put plainly: SPR; ProteOn XPR36, GLC sensor chip; antibody as ligand, monomeric scaffold as analyte; monovalent KD. The note with it: both partners purified. Background: In SPR one partner is held on a chip, and binding of the other changes the refractive index at the surface.

The target of a further test is T5, T117v2 (designed scaffold T117v2 with HIV-1 …).
T5 construct: also called T117v2 scaffold; source: FreeStyle 293F, purified (IMAC, SEC)
T5 chain: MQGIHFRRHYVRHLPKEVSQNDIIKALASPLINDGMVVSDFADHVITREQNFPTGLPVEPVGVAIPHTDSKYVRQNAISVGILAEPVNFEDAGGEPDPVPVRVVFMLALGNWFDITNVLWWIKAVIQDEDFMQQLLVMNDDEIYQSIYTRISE
The description is as above. Conditions: both partners purified.

A further test addresses T6, T117v2 epitope scaffold (designed scaffold T117v2 with HIV-1 …).
T6 chain: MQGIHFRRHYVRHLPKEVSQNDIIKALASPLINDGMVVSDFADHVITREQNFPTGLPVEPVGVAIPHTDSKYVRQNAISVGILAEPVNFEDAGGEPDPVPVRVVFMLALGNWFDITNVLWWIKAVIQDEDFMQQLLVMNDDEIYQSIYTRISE
Put plainly: SPR; values told in the text, methods or extended data without a main figure; instrument not told (Carterra LSA, ProteOn XPR36 with GLC chip or Biacore 4000 with CM5 chip). The note with it: both partners purified.

In test [4] the target is T3, 10E8-B1 epitope scaffold. Put plainly: SPR; Carterra LSA, HC30M or CMDP chips; antibodies as ligands held by an amine-coupled capture antibody, scaffolds as analytes (monovalent Kd); 1x HBS-EP+ pH 7.4 with 1 mg/ml bovine serum albumin; Langmuir model; values of the main text figures. Conditions: both partners purified.
Test [5] has as its target T7, 10E8-GT12 epitope scaffold (synthetic construct (HIV-1 MPER graft …, N-linked glycosylation sites added (positions not given))).
T7 chain: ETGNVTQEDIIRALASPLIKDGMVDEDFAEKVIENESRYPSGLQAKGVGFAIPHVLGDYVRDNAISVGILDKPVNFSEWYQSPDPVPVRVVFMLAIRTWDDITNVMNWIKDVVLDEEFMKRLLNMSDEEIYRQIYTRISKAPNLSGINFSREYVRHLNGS

B1: MPER-073 (antibody, V domains shown)
VH: QVQLQESGPGLVKPSQTLSLTCTVSGGSISSGGYYWSWIRQHPGKGLEWIGYIYYSGSTYYNPSLKSRVTISVDTSKNQFSLKLSSVTAADTAVYYCARDCAVYDFWSGYGPGGWFDPWGQGTLVTVSS
VL: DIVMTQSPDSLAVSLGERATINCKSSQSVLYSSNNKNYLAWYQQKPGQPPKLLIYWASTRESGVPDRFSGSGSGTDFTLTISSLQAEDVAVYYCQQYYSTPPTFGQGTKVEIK
B1: the Kd in test [1] came to 7300 nM; in test [2] it was 20000 nM.

B2: NHP-10E8_MPER-GT10v55_W26-03 (antibody, V domains shown)
VH: QVQLQESGPGVVKPSETLSLTCAVSGGSISDNYWWTWIRQPPGKGLEWIGYIYGSNTSTNYNPSLKSRVTISKDTSKNQFSLKLSSVTAADTAVYYCARDREFYNFWSGYYGAYGLDSWGQGVVVTVSS
VL: QPVLTQPTSLSASPGASARLSCTLSSGINVGSYSIYWYQQKPGSPPRYLLYYDSDSNKHQGSGVPSRFSGSNDASANAGLLLISGLQSEDEADYYCAIWHSSTYYIFGGGTRLTV
Turning to B2, the Kd stood at 0.178 nM in test [2] and 840 nM with 10E8-B1 epitope scaffold [3].

B3: MPER-072 (antibody, V domains shown)
VH: QVQLQESGSGLVKPSQTLSLTCAVSGGSISSGGYSWSWIRQPPGKGLEWIGYIYHSGSTYYNPSLKSRVTISVDRSKNQFSLKLSSVTAADTAVYYCARAGHNYDFWSGYYPVGGAFDIWGQGTMVTVSS
VL: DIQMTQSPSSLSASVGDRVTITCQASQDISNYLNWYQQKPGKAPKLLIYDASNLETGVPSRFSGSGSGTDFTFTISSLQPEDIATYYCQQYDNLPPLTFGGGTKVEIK
On to B3, for which the results for the Kd in test [1] and in test [2] were 13000 nM and 16000 nM, respectively.

B4: MPER-063 (antibody, V domains shown)
VH: QVQLVQSGAEVKKPGSSVKVSCKASGGTFSSYAISWVRQAPGQGLEWMGGIIPIFGTANYAQKFQGRVTITADESTSTAYMELSSLRSEDTAVYYCARGGTHYDFWSGYSDYYYGMDVWGKGTTVTVSS
VL: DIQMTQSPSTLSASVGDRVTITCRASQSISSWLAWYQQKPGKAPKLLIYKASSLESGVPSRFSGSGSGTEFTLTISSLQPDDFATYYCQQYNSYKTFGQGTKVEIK
For the molecule B4, the Kd in test [1] was determined as 4000 nM; in test [2], 6600 nM.

B5: 10E8-iGL1 (antibody, V domains shown)
VH: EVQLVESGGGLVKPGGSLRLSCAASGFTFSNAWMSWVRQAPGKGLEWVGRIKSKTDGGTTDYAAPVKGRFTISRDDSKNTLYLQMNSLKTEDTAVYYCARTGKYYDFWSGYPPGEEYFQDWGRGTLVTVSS
VL: SSELTQDPAVSVALGQTVRITCQGDSLRSYYASWYQQKPGQAPVLVIYGKNNRPSGIPDRFSGSSSGNTASLTITGAQAEDEADYYCSSRDKSGSRLSVFGGGTKLTVL
notes: source: FreeStyle 293F or ExpiCHO, purified (protein A)
In the test with 10E8-GT4, B5 yielded a Kd of 250 nM, a koff of 25 s⁻¹ and an on-rate (kon) of 1e+08 M⁻¹ s⁻¹.

B6: 10E8-iGL2 (antibody, V domains shown)
VH: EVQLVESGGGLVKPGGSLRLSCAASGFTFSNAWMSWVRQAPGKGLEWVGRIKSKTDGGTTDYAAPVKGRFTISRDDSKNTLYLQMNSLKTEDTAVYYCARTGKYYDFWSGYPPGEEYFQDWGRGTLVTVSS
VL: SSELTQDPAVSVALGQTVRITCQGDSLRSYYASWYQQKPGQAPVLVIYGKNNRPSGIPDRFSGSSSGNTASLTITGAQAEDEADYYCNSRDSSGNHLWVFGGGTKLTVL
notes: as for B5
As to B6, in the test with T117v2, the Kd was 17000 nM, the koff stood at 0.11 s⁻¹ and the kon was 6600 M⁻¹ s⁻¹.

B7: NHP-10E8_MPER-GT10v55_W26-06 (antibody, V domains shown)
VH: QVQLQESGPGLVKPSETLSLTCAVSGDSISSGYYYWSWIRQPPGKGLEWIGYITYSGSTSYNPSLKSQVTISRDTAKNQFSLKLSSVTAADTAVYYCARGGTYYNFWSDGSPQYNRFGFWGPGVPVTVSS
VL: DIVMTQTPLSLPVTPGEPASISCRSSQSLLHSEDGNTYLDWYLQKPGQSPQLLIYEVSNRASGVPDRFSGSGSDTDFTLKISRVEAEDVGVYYCMQGLEFPLTFGGGTKVELK
On to B7, for which the figures for the Kd (in test [2]; with 10E8-B1 epitope scaffold [3]) were 1.45 nM and 6420 nM, respectively.

B8: NHP-10E8_MPER-GT10v55_W21-19 (antibody, V domains shown)
VH: QVQLQESGPGLLKPSDTLSLICAVSGGSISGGYGWGWIRQPPGKGLEWIGSIYSSNGNTYYNPSLKSRVTISTDTSKNQFSLKLNSVTAADTAVYYCGSGGLSYSFWSGYQSLHRLHVWGPGVLVTVSS
VL: DIVMTQTPLSLPVTPGEPASISCRSSQSLLDSEDGNTYLDWYLQKPGQSPQLLIYEVSKRASGVPDRFSGSGSDTDFTLKISRVEAEDVGVYYCMQGLEFPFTFGPGTKLDIK
With B8, the Kd in test [2] was found to be 0.579 nM; with 10E8-B1 epitope scaffold [3], 415 nM.

B9: MPER-068 (antibody, V domains shown)
VH: QVQLQESGPGLVKPSETLSLTCTVSGGSISSYYWSWIRQPPGKGLEWIGYIYYSGSTNYNPSLKSRVTISVDTSKNQFSLKLSSVTAADTAVYYCARSPSPYYDFWSGYFQETNWFDPWGQGTLVTVSS
VL: not shown
As to B9, the Kd in test [1] worked out at 700 nM; in test [2] it was 2100 nM.

B10: mature 10E8 broadly neutralizing antibody (antibody, V domains shown)
VH: EVQLVESGGGLVKPGGSLRLSCSASGFDFDNAWMTWVRQPPGKGLEWVGRITGPGEGWSVDYAAPVEGRFTISRLNSINFLYLEMNNLRMEDSGLYFCARTGKYYDFWSGYPPGEEYFQDWGRGTLVTVSS
VL: SYELTQETGVSVALGRTVTITCRGDSLRSHYASWYQKKPGQAPILLFYGKNNRPSGVPDRFSGSASGNRASLTISGAQAEDDAEYYCSSRDKSGSRLSVFGGGTKLTVL
notes: also called 10E8 bnAb; source: FreeStyle 293F cells or ExpiCHO (high-throughput), purified (protein A)
B10: the Kd with T117v2 epitope scaffold worked out at 0.39 nM; in the test with 10E8-B1 epitope scaffold [4], 0.08 nM.

B11: 10E8 (antibody, V domains shown)
VH: EVQLVESGGGLVKPGGSLRLSCSASGFDFDNAWMTWVRQPPGKGLEWVGRITGPGEGWSVDYAAPVEGRFTISRLNSINFLYLEMNNLRMEDSGLYFCARTGKYYDFWSGYPPGEEYFQDWGRGTLVTVSS
VL: SYELTQETGVSVALGRTVTITCRGDSLRSHYASWYQKKPGQAPILLFYGKNNRPSGVPDRFSGSASGNRASLTISGAQAEDDAEYYCSSRDKSGSRLSVFGGGTKLTVL
notes: also called mature 10E8; 10E8 bnAb; source: FreeStyle 293F or ExpiCHO, purified (protein A)
As for B11, the Kd was found to be 0.94 nM with T117v2 and 9.5 nM with 10E8-GT4.

B12: NHP-10E8_MPER-GT10v55_W21-12 (antibody, V domains shown)
VH: EVQLVESGGGLVQPGGSLRLSCAASGFTFSSYGMHWVRQAPGKGLEWVAVIWYDGSKKYYADSVKDRFTISRDNSKNMLYLQMNNLKFEDTAVYYCARVAPDYDFWSGSYTYSGLDSWGQGVVVTVSS
VL: DIQMTQSPSSLSASVGDTVTITCRASQSISSWLDWYQQKPGKAPKLLIYKASNLQSGVPSRFSGSGSGTHFTLTISSLQPEDFATYYCLQYNSSPYSFGQGTKVEIK
For B12, the Kd in test [2] was found to be 0.842 nM; in the test with 10E8-B1 epitope scaffold [3], 1010 nM.

B13: MPER_HuGL-106 (MPER-102) (antibody, V domains shown)
VH: EVQLVESGGGLVQPGRSLRLSCTASGFTFGDYAMSWVRQAPGKGLEWVGFIRSKAYGGTTEYAASVKGRFTISRDDSKSIAYLQMNSLKTEDTAVYYCTRDKVGYDFWSGDYYYYGMDVWGQGTTVTVSS
VL: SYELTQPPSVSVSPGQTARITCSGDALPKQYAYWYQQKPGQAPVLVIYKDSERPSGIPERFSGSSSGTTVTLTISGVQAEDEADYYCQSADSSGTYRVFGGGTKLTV
In test [5], B13 came in with a Kd of 1140 nM.

B14: NHP-10E8_MPER-GT10v55_W26-05 (antibody, V domains shown)
VH: EVQLVESGGGLVQPGGSLRLSCAASGFTFSNYWMNWVRQAPGKGLEWVGFIKNKADGGTAAYAESVKGRFTISRDDSKNTLYLQMNSLKTEDTAVYYCTREATFYNFWSGYYTPQYGLDSWGQGVVVTVSS
VL: QPVLTQPTSLSASPGASARLTCTLSSGISVGSYRIFWYQQKPGSPPRYLLNYHTDSDKHQGSGVPSRFSGSKDASANAGILLISGLQSEDEADYYCMIWHNNAHGLFGGGTRLTV
In the case of B14, the Kd amounted to 263 nM in test [2] and 9680 nM with 10E8-B1 epitope scaffold [3].

B15: MPER-070 (antibody, V domains shown)
VH: QVQLQESGPGLVKPSETLSLTCTVSGGSISSSSYYWGWIRQPPGKGLEWIGSIYYSGSTYYNPSLKSRVTISVDTSKNQFSLKLSSVTAADTAVYYCARHHPHAYDFWSGYYSERYYFDYWGQGTLVTVSS
VL: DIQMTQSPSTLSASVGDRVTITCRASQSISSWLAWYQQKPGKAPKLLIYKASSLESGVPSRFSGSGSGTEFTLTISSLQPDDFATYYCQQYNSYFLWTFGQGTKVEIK
Consider B15, for which the figures for the Kd in test [1] and in test [2] were 4100 nM and 13000 nM, respectively.

B16: NHP-10E8_MPER-GT10v55_W3-20 (antibody, V domains shown)
VH: EVQLVESGGGLVQPGGSLRLSCAASGFSFSNYWMSWVRQAPGKGLEWVGFIKNKADGGTAAYAESVKGRFTISRDDSKNTLYLQMNSLKTEDTAVYFCARDLGRYNFWSAFYSQNRFDVWGPGVLVTVSS
VL: SYEVTQPPSVSVSPGQMARITCGGDNLGSKYVHWYQQKPAQAPVMVMYDDSERPSGIPERFSGSKSGNTATLTISGVEAGDEADYYCQVWDSSSDHPLFGGGTRLTV
Regarding B16, the Kd was determined as 4.82 nM in test [2] and 4270 nM with 10E8-B1 epitope scaffold [3].

B17: NHP-10E8_MPER-GT10v55_W21-04 (antibody, V domains shown)
VH: EVQLVESGGGLVQPGGSLRLSCVASGFTFSDYGFDWVRQAPGKGLEWVGFIRSKDYGGSTEYAASVKGRFTISRDDSKNTAYLQMTSLKAEDTAVYFCTRDLGFYNFWTGYYEVNRFDVWGAGVLVTVSS
VL: QPVLTQPTSLSASPGASARLTCTLRSGISVGSYRIFWYQQKPGSPPRYLLNYHTDSDNHQGSGVPSRFSGSKDASANAGILLISGLQSDDEADYYCMIWHNNACFFGGGTRLTV
Consider B17, for which the values for the Kd (in test [2]; with 10E8-B1 epitope scaffold [3]) were 0.115 nM and 22900 nM, respectively.
